# T1: human Trop2 recombinantly expressed on HEK293 cells (full-length, C-terminal Myc-DDK-tag) (human, UniProt P09758 27-323)
# T1 construct: UniProt P09758 is printed for human TROP2; also called trophoblast cell-surface antigen 2; not shown: C-terminal Myc-DDK-tag of the Origene construct #RC202519
# T1 sequence: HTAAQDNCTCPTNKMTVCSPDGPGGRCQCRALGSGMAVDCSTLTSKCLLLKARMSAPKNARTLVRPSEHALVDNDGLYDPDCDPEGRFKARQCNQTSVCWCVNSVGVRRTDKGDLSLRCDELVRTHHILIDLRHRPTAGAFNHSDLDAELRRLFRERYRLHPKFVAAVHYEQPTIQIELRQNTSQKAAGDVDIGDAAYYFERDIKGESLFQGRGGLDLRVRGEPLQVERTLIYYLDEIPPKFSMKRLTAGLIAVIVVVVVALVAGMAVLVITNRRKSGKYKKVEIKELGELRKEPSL
# B1: Trop2#1 (antibody, V domains shown)
# VH: EVQLQQSGPELLKPGASVKISCKASGYTFTDYTMHWVKQSHGKSLEWIGGIYPNYGDTNYNEKFKDKATLTVDESSSTAYMELRSLTSEDSAVYYCSRKTVLLRLRYFDVWGTGTTVTVSS
# VL: DIQMTQSPASLSASVGETVTITCRASGNIHNYLAWYQQKQGKSPQLLVYNAITLADGVPSRFSGSGSGTQYSLKINSLQPEDFGSYYCQHFWSTPFTFGSGTKLEIK
# B2: Trop2#7 (antibody, V domains shown)
# VH: EVQLQQSGPELVKPGASVKMSCRASGYTFTSYAMHWVKQKPGQGLEWIGYINPYNGGTKYNEKFKGRATLTSDKSSSTAYMELSSLTSEDSAVYYCAREGIYYGAWFAYWGQGTLVTVSA
# VL: DIQMTQSSSSFSVSLGDRVTITCKASEDIYNRLAWFQQKPGNAPRLLISGATSLETGVPSRFRGSRSGKDYTLSITSLQTEDVATYYCQQYWSTWTFGGGTKLEIK
# B3: Trop2#5 (antibody, V domains shown)
# VH: EVQLQQSGPDLVKPGASVKMSCKASGFIFTDYYMNWVKQSHGKSLEWIGYIYPNNGATAYNQKFKGKATLTVDKSSSTAYMELRSLTSEDSAVYYCARESDFYAMDYWGQGTSVTVSS
# VL: DVVMTQTPLSLPVSLGDQASISCRSSQSLVHSHGNIYLHWYLQKPGLSPKLLIFKVSNRFSGVPDRFSGSGSGTDFTLKISRVEAEDLGVYFCSQSTHVWTFGGGTKLEIK
# Biological target: T1, human Trop2 recombinantly expressed on …
# Assay: flow cytometry based Scatchard method on HEK293 cells expressing Trop2
row,Kd [nM],Binder
1,2.2,B1
2,0.4,B2
3,0.6,B3
